Results on 2 molecules are retold here after publication PMC5143422 (Cell Research, 2016).

Data set [1] concerns the target FabZ (β-hydroxyacyl-ACP dehydratase) from Helicobacter pylori (Helicobacter pylori) (UniProt O25928). The data set can be described thus: MST.
For data set [2] the target is unchanged. The data set can be described thus: SEC-MALS.
The data set “SEC-MALS” deals with the molecule itself. In words: SEC-MALS. A general note: SEC sorts molecules by how far they enter the pores of the column.

As to “holo-acyl carrier protein (holo-ACP) from Helicobacter pylori (natural protein)”, in data set [1], the KD, first phase of the triphasic binding curve stood at 0.354 µM; the KD, second phase of the triphasic binding curve is 16.2 µM; the KD, third phase of the triphasic binding curve stood at 297 µM. Besides, the stoichiometry N (holo-ACP per FabZ hexamer) in data set [2] was found to be 3.

B1: FabZ (β-hydroxyacyl-ACP dehydratase) from Helicobacter pylori (enzyme)
chain: MEQSHQNLQSQFFIEHILQILPHRYPMLLVDRIIELQANKKIVAYKNITFNEDVFNGHFPNKPIFPGVLIVEGMAQTGGFLAFTSLWGFDPEIAKTKIVYFMTIDKVKFRIPVTPGDRLEYHLEVLKHKGMIWQVGGTAQVDGKVVAEAELKAMIAER
modifications: fluorescence dye NT-647 (amine-reaction) in the MST assay only
With B1, the “stoichiometry N” value in “SEC-MALS” was found to be 6.

As usually defined, the stoichiometry N is the number of molecules, sites or subunits per partner or assembly.
